Measured values taken from the supplement of paper PMC10126150.
± gives the standard deviation of the averaged measurements.

These sequences were tested on ATP (assay: switch fluorescence ratio, 500 uM ATP over buffer (Cy3 cluster intensity, sum of 5 cycles each) (fold (ratio)); higher = stronger signal-on switching upon ATP binding; sequences stand for … in TCGTCGGCAGCGTCAGATGTGTATAAGAGACAGTTTTTTTTTTTTTTTTTTTTTTTTT…TC). Conditions: aptamer strand: ATP DNA aptamer (quencher-CACCTGGGGGAGTATTGCGGAGGAAGG + anchor), 100 nM annealed; ATP concentration: 500 uM.
Method in brief: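 Imaging in selection buffer was followed by imaging after 15 min with 500 uM ATP at 22 °C, for Cy3-labelled switching-strand clusters annealed to 100 nM quencher-labelled ATP aptamer on a modified Illumina MiSeq flow-cell. Five of these buffer/ATP cycles ran, separated by NaOH stripping and re-annealing. The fluorescence ratio per cluster is summed target-cycle over summed buffer-cycle Cy3 intensity, averaged per switch-domain sequence; clusters outside 100-1000 RFU were removed.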
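Further: ATP exposure 15 min at 22 °C before imaging.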

Sequence | switch fluorescence ratio
CGGTTTTATT | 0.982 ± 0.028
CGGTTTTGAG | 1.01 ± 0.034
CGGTTTTGTG | 0.962 ± 0.031
CGTAAAACGC | 1.02 ± 0.03
CGTAAAAGGC | 0.994 ± 0.027
CGTAAAGCAG | 1.01 ± 0.061
CGTAAAGGGG | 0.983 ± 0.026
CGTAAATGTG | 0.9668 ± 0.0066
CGTAACAATG | 1.1 ± 0.034
CGTAACTGGT | 0.978 ± 0.018
CGTAAGCGAG | 1.03 ± 0.062
CGTAAGGGGA | 1.05 ± 0.064
CGTAAGTGCA | 1 ± 0.024
CGTAATAGTC | 1.81 ± 0.15
CGTAATGGCA | 1.01 ± 0.017
CGTAATGTCT | 1.06 ± 0.031
CGTAATGTTA | 1.01 ± 0.019
CGTACATGAG | 1.02 ± 0.037
CGTACATGAT | 1.02 ± 0.022
CGTACGAAGG | 0.971 ± 0.028
CGTACGAATG | 0.9769 ± 0.007
CGTACGGTCT | 1.05 ± 0.059

Sequence | switch fluorescence ratio
CGTACGTGGC | 1.125 ± 0.0035
CGTACGTTG | 1 ± 0.022
CGTACTGAAA | 1.04 ± 0.0087
CGTACTGTGG | 0.9977 ± 0.0099
CGTAGATACA | 1.03 ± 0.036
CGTAGCGGGG | 1.11 ± 0.022
CGTAGGATGT | 1.02 ± 0.044
CGTAGGGGTA | 1.11 ± 0.32
CGTAGGTGTG | 1.02 ± 0.021
CGTAGTAACT | 1.11 ± 0.022
CGTAGTATAG | 1.24 ± 0.017
CGTAGTCTGG | 1.05 ± 0.038
CGTAGTGGCT | 1.04 ± 0.04
CGTATAAGAG | 0.991 ± 0.027
CGTATAATAG | 1.02 ± 0.04
CGTATATTGT | 0.983 ± 0.061
CGTATCATTG | 0.997 ± 0.042
CGTATCCGGT | 1.03 ± 0.0019
CGTATCCGTA | 0.987 ± 0.042
CGTATGATAG | 1.015 ± 0.0047
CGTATGCAAA | 1.06 ± 0.058
CGTATGCGCA | 0.97 ± 0.028

Sequence | switch fluorescence ratio
CGTATGGGAG | 0.9452 ± 0.0036
CGTATGGGTG | 1.02 ± 0.04
CGTATGGTTA | 1.02 ± 0.038
CGTATTAAGC | 0.955 ± 0.015
CGTATTAGTA | 0.9926 ± 0.0054
CGTATTATTG | 1.01 ± 0.02
CGTATTCGTA | 0.978 ± 0.019
CGTATTTAAA | 1.01 ± 0.013
CGTCAATTAT | 1.14 ± 0.054
CGTCACATGT | 1.009 ± 0.0048
CGTCACCATG | 1.037 ± 0.0026
CGTCATATTA | 1.008 ± 0.0025
CGTCATCCAT | 0.9881 ± 0.0021
CGTCCACGGA | 0.9936 ± 0.0096
CGTCCAGCGT | 1.2 ± 0.067
CGTCCGAAGG | 1.03 ± 0.041
CGTCCGACTT | 1.2 ± 0.089
CGTCCTGGGG | 1.12 ± 0.048
CGTCGCAGAA | 1.093 ± 0.004
CGTCGCGTAT | 1.03 ± 0.021
CGTCGCTGGG | 1.0111 ± 0.00071
CGTCGCTTTT | 1.022 ± 0.0052

Sequence | switch fluorescence ratio
CGTCGGGGGG | 1.008 ± 0.008
CGTCGGGGTG | 1 ± 0.017
CGTCGGTAAG | 1.04 ± 0.027
CGTCTAGAA | 0.963 ± 0.048
CGTCTGATAG | 0.99 ± 0.033
CGTCTGGGGG | 1.01 ± 0.021
CGTGAAAAGA | 0.986 ± 0.033
CGTGAAAGCT | 1.18 ± 0.037
CGTGAAAGTA | 0.996 ± 0.049
CGTGAAGCGT | 0.998 ± 0.039
CGTGAAGTCG | 0.954 ± 0.025
CGTGAATTTT | 1 ± 0.037
CGTGAGGATT | 1 ± 0.022
CGTGAGGGTC | 1 ± 0.059
CGTGAGGTGA | 1.01 ± 0.035
CGTGAGTACG | 0.992 ± 0.01
CGTGATATCT | 1.05 ± 0.018
CGTGATTACT | 1.17 ± 0.11
CGTGCACCGG | 1 ± 0.031
